Assay results published in EP2727942A1.
Changes are numbered by the printed parent chain. Each block holds one binder with its values, some of them ahead of it.

What was measured:
[1] = target: recombinant Fc chimeric conjugate of human EGFR (human) (UniProt P00533); experiment: ELISA, coated antigen, B-cell supernatant, IgG 1170,2 ng/ml
[2] = target: recombinant Fc chimeric conjugate of human HER3 (human) (UniProt P21860); experiment: as above
[3] = target: recombinant Fc chimeric conjugate of human EGFR (human) (UniProt P00533); experiment: ELISA, coated antigen, B-cell supernatant, IgG 1143,3 ng/ml
[4] = target: recombinant Fc chimeric conjugate of human HER2 (human) (UniProt P04626); experiment: as above
[5] = target: recombinant Fc chimeric conjugate of human EGFR (human) (UniProt P00533); experiment: ELISA, coated antigen, B-cell supernatant, IgG 146,1 ng/ml
[6] = target: recombinant Fc chimeric conjugate of human HER3 (human) (UniProt P21860); experiment: as above
[7] = target: recombinant Fc chimeric conjugate of human EGFR (human) (UniProt P00533); experiment: ELISA, coated antigen, B-cell supernatant, IgG 59,9 ng/ml
[8] = target: recombinant Fc chimeric conjugate of human HER3 (human) (UniProt P21860); experiment: as above
[9] = target: recombinant Fc chimeric conjugate of human EGFR (human) (UniProt P00533); experiment: ELISA, coated antigen, B-cell supernatant, IgG 565,3 ng/ml
[10] = target: recombinant Fc chimeric conjugate of human HER3 (human) (UniProt P21860); experiment: as above
[11] = target: recombinant Fc chimeric conjugate of human EGFR (human) (UniProt P00533); experiment: ELISA, coated antigen, B-cell supernatant, IgG 250,4 ng/ml
[12] = target: recombinant Fc chimeric conjugate of human HER3 (human) (UniProt P21860); experiment: as above
[13] = target: recombinant Fc chimeric conjugate of human EGFR (human) (UniProt P00533); experiment: ELISA, coated antigen, B-cell supernatant, IgG 1912,4 ng/ml
[14] = target: recombinant Fc chimeric conjugate of human HER2 (human) (UniProt P04626); experiment: as above

Chain of UniProt P21860 (P21860 20-643, change not shown): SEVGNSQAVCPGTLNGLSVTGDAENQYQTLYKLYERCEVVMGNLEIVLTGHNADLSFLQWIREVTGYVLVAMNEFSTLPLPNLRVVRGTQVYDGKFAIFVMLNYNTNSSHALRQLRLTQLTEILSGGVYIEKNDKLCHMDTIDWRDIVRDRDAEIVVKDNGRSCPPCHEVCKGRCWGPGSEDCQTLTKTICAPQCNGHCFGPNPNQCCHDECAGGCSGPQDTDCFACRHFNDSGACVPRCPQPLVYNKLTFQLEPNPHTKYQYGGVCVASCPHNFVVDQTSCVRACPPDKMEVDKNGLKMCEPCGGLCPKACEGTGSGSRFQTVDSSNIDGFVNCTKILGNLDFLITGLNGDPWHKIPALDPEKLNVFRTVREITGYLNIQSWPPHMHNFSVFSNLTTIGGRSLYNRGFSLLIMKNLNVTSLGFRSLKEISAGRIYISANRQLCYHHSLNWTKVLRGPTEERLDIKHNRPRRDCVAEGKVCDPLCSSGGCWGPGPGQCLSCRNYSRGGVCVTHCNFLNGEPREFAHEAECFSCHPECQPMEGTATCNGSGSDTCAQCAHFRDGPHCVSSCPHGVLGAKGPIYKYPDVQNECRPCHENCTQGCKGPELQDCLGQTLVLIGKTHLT

B1: Antibody 32 (antibody, V domains shown)
VH: QSVEESGGRLVTPGTPLTLTCTVSGFSLSSYDMSWVRQAPGKGLEWIGFIDGDSNTYDATWAKGRFTISKTSTTVDLKITSPTTEDTATYFCTRGFNLWGQGTLVTVSS
VL: DVVMTQTPASVSEPVGGTVTIKCQASQSISSYLAWYQQKPGQPPKLLIYKASTLASGVSSRFKGSGSGTEFTLTISDLECADAATYYCQCSAGGRSGIGGFGGGTEVVVK
Optical density (OD) [1]: 0.3 OD | Optical density (OD) [2]: 2.3 OD

B2: Antibody 34 (antibody, V domains shown)
VH: QEQLVESGGGLVQPEGSLTLTCKASGFSFSSGYYMCWVRQAPGKGLEWIACIYADSSESTYYASWAKGRFTISKTSSTTVTLQVTSLTAADTATYFCARWGTVAGYSTFNLWGPGTLVTVSS
VL: DVVMTQTPASVSEPVGGTVTIKCQASQSISTALAWYQQKPGQPPKLLIYFTSTLASGVSSRFKGSGSGAEFTLTISDLECADAATYYCQGYYYVTNFPFGGGTEVVVK
Optical density (OD) [3]: 0.3 OD | Optical density (OD) [4]: 3.1 OD

B5: Antibody 56 (antibody, V domains shown)
VH: QSLEESGGRLVTPGTPLTLTCTASGFSLSSYDLSWVRQAPGKGLEWIAYIWSGDKTYYANWAKGRFTISKTSSTTVDLKMTSLTTEDTATYFCATVNIYSYVYSLWGPGTLVTVSS
VL: AYDMTQTPASVEVAVGGTVTIKCQASQSISTALAWYQQKSGQPPKLLIYLASTLASGVPSRFKGSGSGTEYTLTISGVECADAATYYCQQHYSSNNVDNAFGGGTEVVVK
Optical density (OD) [9]: 3.4 OD | Optical density (OD) [10]: 3.1 OD

B7: Antibody 6 (antibody, V domains shown)
VH: QSVEESGGRLVTPGTPLTLTCTVSGFSLSSYTMGWVRQAPGKGLEYIGIINTGGYTYYASWAKGRFTISRTSTTVDLSMTSLTTEDTATYFCARVYPGSSCDLWGQGTLVTVSS
VL: DVVMTQTPASVSEPVGGTVTIKCQASQSISSSYLSWYQQKPGQPPKLLIYRASTLESGVPSRFKGSGSGTEFTLTISDLECADAATYYCQCTDYAGSYVGGAFGGGTEVVVK
Optical density (OD) [13]: 0.4 OD | Optical density (OD) [14]: 3.2 OD

The next lines start with the values.

Optical density (OD) [5]: 2.7 OD | Optical density (OD) [6]: 2.1 OD
B3: Antibody 52 (antibody, V domains shown)
VH: QSVEESGGRLVTPGTALTLTCTVSGFSLSSGDMSWVRQAPGKGLEWIGYIWSGVSTYYANWAKGRFTISKTSSTTVDLKMTSLTIEDTATYFCARVDFYSYVYSLWGPGTLVTVSS
VL: B5 VL with Y2L, D3V, V13A, T31S, A32C, S40P, L50S, S93T, V97I

Optical density (OD) [7]: 2.8 OD | Optical density (OD) [8]: 1 OD
B4: Antibody 60 (antibody, V domains shown)
VH: QSLEESGGRLVTPGGSLTLTCTVSGSDISSYDMSWVRQAPGKGLEWIGYIWSGTTTYYANWAKGRFTISKTSSTTVDLKMTSLTTEDTATYFCATVNIYTYVYSLWGPGTLVTVSS
VL: B5 VL with S94G

Optical density (OD) [11]: 2.7 OD | Optical density (OD) [12]: 3.3 OD
B6: Antibody 55 (antibody, V domains shown)
VH: B4 VH with T56I, N60S, A62P, T95A, V96I
VL: B5 VL with V13A, Q27E, S30Y, T31S, A32S, E70D, S94G, N95S
